Laboratory results published in patent EP4339209A1 (MediMabbio Inc., dated 2024).

T1: human GITR expressed on human primary immune cells (T cells, NK cells, NKT cells of PBMC) (human, UniProt Q9Y5U5 26-241)
T1 construct: Native GITR of donor PBMC; also called hGITR in human primary immune cells; GITR on the surface of immune cells
T1 sequence: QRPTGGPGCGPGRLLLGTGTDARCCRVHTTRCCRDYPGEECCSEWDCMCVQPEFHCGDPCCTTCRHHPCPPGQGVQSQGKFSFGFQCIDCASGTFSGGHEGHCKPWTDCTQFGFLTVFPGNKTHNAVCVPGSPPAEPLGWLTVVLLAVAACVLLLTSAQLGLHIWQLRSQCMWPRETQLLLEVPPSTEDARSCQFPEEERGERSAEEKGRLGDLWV

T2: hGITR (including His tag; Cat. GIR-H5228, Acrobiosystems) (human, UniProt Q9Y5U5 26-162)
T2 construct: Bought protein; not shown: His tag
T2 sequence: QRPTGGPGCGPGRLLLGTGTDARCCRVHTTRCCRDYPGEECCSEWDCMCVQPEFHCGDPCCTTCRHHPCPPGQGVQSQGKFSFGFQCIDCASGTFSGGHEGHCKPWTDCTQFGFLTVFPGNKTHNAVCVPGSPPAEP

B1: anti-GITR 51B VH3/VL4 humanized antibody (human IgG1, kappa) (antibody, V domains shown)
VH: QVQLVQSGAEVKKPGASVKVSCKTTGYRFTGYWIEWVRQPPGKGLEWIGEILPGSGATYYSENFKGKVTITADTSTDTAYMELSSLRSEDTAIYYCARKGGYYAMDYWGQGTLVTVSS
VL: EIVLTQSPATLSLSPGERATLSCTASSSVSSSYFHWYQQKPGKAPKLWIYSTSNLQSGVPDRFSGSGSGTDYTLTISSLQAEDVATYYCHLYHRSPRTFGGGTKVEIKR
notes: also called VH3/Vk4; 51B VH3/Vk4
B2: anti-GITR 51B VH0/VL0 chimeric antibody (human IgG1, kappa) (antibody, V domains shown)
VH: QVQLQQSGAELMKPGASVKLSCKTTGYRFTGYWIEWVKQRPGHGLEWIGEILPGSGATYYSENFKGKATFTADTSSNTAYMQVSSLTTGDSAIYYCARKGGYYAMDYWGQGTSVTVSS
VL: QIVLTQSPAIMSASLGERVTMTCTASSSVSSSYFHWYQQKPGSSPKLWIYSTSNLASGVPARFSGSGSGTSYSLTVSSLEAEDAATYYCHLYHRSPRTFGGGTTLDIKR
notes: Chimeric antibody; also called VH0/Vk0; 51B VH0/Vk0
B3: 51B antibody (as used in the epitope mapping, Example 1.7) (antibody, V domains shown)
VH: B2 VH
VL: QIVLTQSPAIMSASLGERVTMTCTASSSVSSSYFHWYQQKPGSSPKLWIYSTSNLASGVPARFSGSGSGTSYSLTVSSLEAEDAATYYCHLYHRSPRTFGGGTTLDIK
notes: also called anti-GITR monoclonal antibody (51B clone)

Tests used:
[1] = target: T1, human GITR expressed on human primary …; assay: flow cytometry, AF488-labelled antibody on activated human PBMC
[2] = target: recombinant human GITR (Cat No. 13643-H08H, Lot No. LC12JA2509, Sino Biological) (human) (UniProt Q9Y5U5); assay: SPR Biacore 8K, multi-cycle kinetics, purified IgG captured on Protein A, GITR as analyte
[3] = target: recombinant human GITR (Cat No. 13643-H08H, Lot No. LC12JA2509, Sino Biological) (human) (UniProt Q9Y5U5); assay: SPR Biacore 8K, single-cycle kinetics, IgG in supernatant captured on Protein A, GITR as analyte
[4] = target: T2, hGITR (including His tag; Cat. …); assay: DSS cross-linking of the GITR/51B complex, nLC-orbitrap MS/MS

Binder	binding result [1]	Kd [2]	Relative KD (fold vs VH0/VL0) [2]	koff [2]	kon [2]	Kd [3]	Relative KD (fold vs VH0/VL0) [3]	koff [3]	kon [3]	binding result [4]
B1	binds	0.675 nM	1.19	0.00043 s⁻¹	636000 M⁻¹ s⁻¹	0.758 nM	1.3	0.000467 s⁻¹	616000 M⁻¹ s⁻¹	
B2	binds	0.57 nM	1	0.000314 s⁻¹	552000 M⁻¹ s⁻¹	0.566 nM	1	0.000334 s⁻¹	590000 M⁻¹ s⁻¹	
B3										binds
